Results reported in patent US20130078245A1 (REGENTS OF THE UNIVERSITY OF COLORADO A BODY CORPORATE, published 2013).

Target: T1, recombinant human C3d (human, UniProt P01024 996-1303, limits assumed)
T1 construct: domain: C3d; The Biacore paragraph says only C3d; also called recombinant C3d
Assay: BIAcore SPR, C3d immobilized on the chip, antibody at 10, 30 and 90 nM in flow, 1:1 Langmuir fit
Source text: The binding affinity of the anti-C3d/C3dg antibodies to C3d was further tested by BIAcore analysis.

T1 sequence (P01024 996-1303 limits assumed): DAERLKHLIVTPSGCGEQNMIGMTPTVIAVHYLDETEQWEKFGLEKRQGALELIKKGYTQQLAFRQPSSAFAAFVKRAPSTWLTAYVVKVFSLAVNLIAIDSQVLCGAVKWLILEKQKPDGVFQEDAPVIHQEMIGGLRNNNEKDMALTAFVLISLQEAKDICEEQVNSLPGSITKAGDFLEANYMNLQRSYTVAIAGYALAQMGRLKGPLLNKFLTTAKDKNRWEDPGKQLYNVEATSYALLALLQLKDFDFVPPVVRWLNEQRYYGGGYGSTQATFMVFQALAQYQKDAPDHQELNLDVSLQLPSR

- Kd: 1.06 nM
B1: mouse monoclonal anti-C3d antibody 3d29, produced by hybridoma cell line 3d-29/5/2 (ATCC PTA-11000) (antibody, V domains shown)
VH: EVQLQQSGPVLVKPGASVKMSCKASGYTFTDYYMNWVKQSHGKSLEWIGVINPYNGGTSYNQKFKGKATLTVDKSSRTAYMELNSLTSEDSAVYYCSRGGPYWGQGTTLTVSS
VL: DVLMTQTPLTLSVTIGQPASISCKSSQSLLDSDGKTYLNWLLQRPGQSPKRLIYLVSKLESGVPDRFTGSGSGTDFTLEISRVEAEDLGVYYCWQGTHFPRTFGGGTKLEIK
notes: Whole mouse IgG purified on protein G; also called mAb 3d29; clone 3d29
